In article PMC10786891, “Massively parallel profiling of RNA-targeting CRISPR-Cas13d” one finds Kd data, which are given here for 27 molecules.

The labels stand for the following.
T1: EsCas13d, nuclease-dead (Eubacterium siraeum, UniProt B0MS50, R295A;H300A;R849A;H854A)
T1 sequence: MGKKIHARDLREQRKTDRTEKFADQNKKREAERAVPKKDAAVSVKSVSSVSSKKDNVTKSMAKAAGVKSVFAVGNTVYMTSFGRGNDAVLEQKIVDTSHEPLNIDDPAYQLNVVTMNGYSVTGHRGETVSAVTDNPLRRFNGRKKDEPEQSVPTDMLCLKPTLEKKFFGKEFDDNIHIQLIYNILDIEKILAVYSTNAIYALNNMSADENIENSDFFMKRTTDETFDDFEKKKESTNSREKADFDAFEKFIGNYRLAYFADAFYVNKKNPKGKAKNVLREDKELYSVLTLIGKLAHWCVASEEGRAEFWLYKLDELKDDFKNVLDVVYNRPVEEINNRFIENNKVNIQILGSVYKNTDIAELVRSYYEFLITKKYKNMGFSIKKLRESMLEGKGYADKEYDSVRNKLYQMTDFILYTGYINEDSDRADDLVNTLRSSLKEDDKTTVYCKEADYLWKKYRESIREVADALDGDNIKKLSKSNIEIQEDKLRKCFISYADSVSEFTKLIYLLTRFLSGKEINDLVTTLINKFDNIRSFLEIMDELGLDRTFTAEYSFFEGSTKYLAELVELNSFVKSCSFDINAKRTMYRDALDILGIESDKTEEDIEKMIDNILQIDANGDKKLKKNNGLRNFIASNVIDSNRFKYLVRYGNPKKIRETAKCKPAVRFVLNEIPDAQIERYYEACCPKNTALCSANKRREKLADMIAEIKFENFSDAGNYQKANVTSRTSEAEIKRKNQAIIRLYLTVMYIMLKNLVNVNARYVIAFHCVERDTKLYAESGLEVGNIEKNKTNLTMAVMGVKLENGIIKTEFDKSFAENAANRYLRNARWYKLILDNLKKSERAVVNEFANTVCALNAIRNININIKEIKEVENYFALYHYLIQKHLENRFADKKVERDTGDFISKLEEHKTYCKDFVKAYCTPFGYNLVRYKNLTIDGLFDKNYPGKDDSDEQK

B1: target 2 MT 5'PFS UCG 3'PFS CCA (mixed)
RNA 1: CACCCGUGCAAAAUUGCAGGGGUCUAAAACCUUCUCCAAAUUGUUUCAUCCU
RNA 2: GGGAAUGGAUCCACAUCUACGAAUUCUCGAGGAUGAAACAAUUUGGAGAAGCCAAGAUCGGAAGAGCACACGU
B2: target 2 MT 5'PFS AUG 3'PFS AUC (mixed)
RNA 1: CACCCGUGCAAAAUUGCAGGGGUCUAAAACCUUCUCCAAAUUGUUUCAUCCU
RNA 2: GGGAAUGGAUCCACAUCUACGAAUUCAUGAGGAUGAAACAAUUUGGAGAAGAUCAGAUCGGAAGAGCACACGU
B3: target 2 MT 5'PFS ACA 3'PFS CAU (mixed)
RNA 1: CACCCGUGCAAAAUUGCAGGGGUCUAAAACCUUCUCCAAAUUGUUUCAUCCU
RNA 2: GGGAAUGGAUCCACAUCUACGAAUUCACAAGGAUGAAACAAUUUGGAGAAGCAUAGAUCGGAAGAGCACACGU
B4: target 2 MT 5'PFS GAU 3'PFS CUA (mixed)
RNA 1: CACCCGUGCAAAAUUGCAGGGGUCUAAAACCUUCUCCAAAUUGUUUCAUCCU
RNA 2: GGGAAUGGAUCCACAUCUACGAAUUCGAUAGGAUGAAACAAUUUGGAGAAGCUAAGAUCGGAAGAGCACACGU
B5: target 2 MT 5'PFS GGA 3'PFS CAU (mixed)
RNA 1: CACCCGUGCAAAAUUGCAGGGGUCUAAAACCUUCUCCAAAUUGUUUCAUCCU
RNA 2: GGGAAUGGAUCCACAUCUACGAAUUCGGAAGGAUGAAACAAUUUGGAGAAGCAUAGAUCGGAAGAGCACACGU
B6: target 2 MT 5'PFS GGG 3'PFS CAA (mixed)
RNA 1: CACCCGUGCAAAAUUGCAGGGGUCUAAAACCUUCUCCAAAUUGUUUCAUCCU
RNA 2: GGGAAUGGAUCCACAUCUACGAAUUCGGGAGGAUGAAACAAUUUGGAGAAGCAAAGAUCGGAAGAGCACACGU
B7: target 2 MT 5'PFS UAG 3'PFS UCA (mixed)
RNA 1: CACCCGUGCAAAAUUGCAGGGGUCUAAAACCUUCUCCAAAUUGUUUCAUCCU
RNA 2: GGGAAUGGAUCCACAUCUACGAAUUCUAGAGGAUGAAACAAUUUGGAGAAGUCAAGAUCGGAAGAGCACACGU
B8: target 2 MT 5'PFS GAU 3'PFS CUC (mixed)
RNA 1: CACCCGUGCAAAAUUGCAGGGGUCUAAAACCUUCUCCAAAUUGUUUCAUCCU
RNA 2: GGGAAUGGAUCCACAUCUACGAAUUCGAUAGGAUGAAACAAUUUGGAGAAGCUCAGAUCGGAAGAGCACACGU
B9: target 2 MT 5'PFS UUU 3'PFS UCC (mixed)
RNA 1: CACCCGUGCAAAAUUGCAGGGGUCUAAAACCUUCUCCAAAUUGUUUCAUCCU
RNA 2: GGGAAUGGAUCCACAUCUACGAAUUCUUUAGGAUGAAACAAUUUGGAGAAGUCCAGAUCGGAAGAGCACACGU
B10: target 2 MT 5'PFS AAC 3'PFS UCU (mixed)
RNA 1: CACCCGUGCAAAAUUGCAGGGGUCUAAAACCUUCUCCAAAUUGUUUCAUCCU
RNA 2: GGGAAUGGAUCCACAUCUACGAAUUCAACAGGAUGAAACAAUUUGGAGAAGUCUAGAUCGGAAGAGCACACGU
B11: target 2 MT 5'PFS GAU 3'PFS CUG (mixed)
RNA 1: CACCCGUGCAAAAUUGCAGGGGUCUAAAACCUUCUCCAAAUUGUUUCAUCCU
RNA 2: GGGAAUGGAUCCACAUCUACGAAUUCGAUAGGAUGAAACAAUUUGGAGAAGCUGAGAUCGGAAGAGCACACGU
B12: target 2 MT 5'PFS GCC 3'PFS CUU (mixed)
RNA 1: CACCCGUGCAAAAUUGCAGGGGUCUAAAACCUUCUCCAAAUUGUUUCAUCCU
RNA 2: GGGAAUGGAUCCACAUCUACGAAUUCGCCAGGAUGAAACAAUUUGGAGAAGCUUAGAUCGGAAGAGCACACGU
B13: target 2 MT 5'PFS AUG 3'PFS AUA (mixed)
RNA 1: CACCCGUGCAAAAUUGCAGGGGUCUAAAACCUUCUCCAAAUUGUUUCAUCCU
RNA 2: GGGAAUGGAUCCACAUCUACGAAUUCAUGAGGAUGAAACAAUUUGGAGAAGAUAAGAUCGGAAGAGCACACGU
B14: target 2 MT 5'PFS GGG 3'PFS CAC (mixed)
RNA 1: CACCCGUGCAAAAUUGCAGGGGUCUAAAACCUUCUCCAAAUUGUUUCAUCCU
RNA 2: GGGAAUGGAUCCACAUCUACGAAUUCGGGAGGAUGAAACAAUUUGGAGAAGCACAGAUCGGAAGAGCACACGU
B15: target 2 MT 5'PFS GGG 3'PFS CAU (mixed)
RNA 1: CACCCGUGCAAAAUUGCAGGGGUCUAAAACCUUCUCCAAAUUGUUUCAUCCU
RNA 2: GGGAAUGGAUCCACAUCUACGAAUUCGGGAGGAUGAAACAAUUUGGAGAAGCAUAGAUCGGAAGAGCACACGU
B16: target 2 MT 5'PFS UUU 3'PFS UCA (mixed)
RNA 1: CACCCGUGCAAAAUUGCAGGGGUCUAAAACCUUCUCCAAAUUGUUUCAUCCU
RNA 2: GGGAAUGGAUCCACAUCUACGAAUUCUUUAGGAUGAAACAAUUUGGAGAAGUCAAGAUCGGAAGAGCACACGU
B17: target 2 MT 5'PFS AUG 3'PFS AUU (mixed)
RNA 1: CACCCGUGCAAAAUUGCAGGGGUCUAAAACCUUCUCCAAAUUGUUUCAUCCU
RNA 2: GGGAAUGGAUCCACAUCUACGAAUUCAUGAGGAUGAAACAAUUUGGAGAAGAUUAGAUCGGAAGAGCACACGU
B18: target 2 MT 5'PFS GGA 3'PFS AGU (mixed)
RNA 1: CACCCGUGCAAAAUUGCAGGGGUCUAAAACCUUCUCCAAAUUGUUUCAUCCU
RNA 2: GGGAAUGGAUCCACAUCUACGAAUUCGGAAGGAUGAAACAAUUUGGAGAAGAGUAGAUCGGAAGAGCACACGU
B19: target 2 MT 5'PFS ACA 3'PFS CAG (mixed)
RNA 1: CACCCGUGCAAAAUUGCAGGGGUCUAAAACCUUCUCCAAAUUGUUUCAUCCU
RNA 2: GGGAAUGGAUCCACAUCUACGAAUUCACAAGGAUGAAACAAUUUGGAGAAGCAGAGAUCGGAAGAGCACACGU
B20: target 2 MT 5'PFS GAU 3'PFS CUU (mixed)
RNA 1: CACCCGUGCAAAAUUGCAGGGGUCUAAAACCUUCUCCAAAUUGUUUCAUCCU
RNA 2: GGGAAUGGAUCCACAUCUACGAAUUCGAUAGGAUGAAACAAUUUGGAGAAGCUUAGAUCGGAAGAGCACACGU
B21: target 2 MT 5'PFS UAG 3'PFS UCU (mixed)
RNA 1: CACCCGUGCAAAAUUGCAGGGGUCUAAAACCUUCUCCAAAUUGUUUCAUCCU
RNA 2: GGGAAUGGAUCCACAUCUACGAAUUCUAGAGGAUGAAACAAUUUGGAGAAGUCUAGAUCGGAAGAGCACACGU
B22: target 2 MT 5'PFS GGG 3'PFS CAG (mixed)
RNA 1: CACCCGUGCAAAAUUGCAGGGGUCUAAAACCUUCUCCAAAUUGUUUCAUCCU
RNA 2: GGGAAUGGAUCCACAUCUACGAAUUCGGGAGGAUGAAACAAUUUGGAGAAGCAGAGAUCGGAAGAGCACACGU
B23: target 2 MT 5'PFS CUC 3'PFS CGA (mixed)
RNA 1: CACCCGUGCAAAAUUGCAGGGGUCUAAAACCUUCUCCAAAUUGUUUCAUCCU
RNA 2: GGGAAUGGAUCCACAUCUACGAAUUCCUCAGGAUGAAACAAUUUGGAGAAGCGAAGAUCGGAAGAGCACACGU
B24: target 2 MT 5'PFS AAC 3'PFS UCA (mixed)
RNA 1: CACCCGUGCAAAAUUGCAGGGGUCUAAAACCUUCUCCAAAUUGUUUCAUCCU
RNA 2: GGGAAUGGAUCCACAUCUACGAAUUCAACAGGAUGAAACAAUUUGGAGAAGUCAAGAUCGGAAGAGCACACGU
B25: target 2 MT 5'PFS CUC 3'PFS CGC (mixed)
RNA 1: CACCCGUGCAAAAUUGCAGGGGUCUAAAACCUUCUCCAAAUUGUUUCAUCCU
RNA 2: GGGAAUGGAUCCACAUCUACGAAUUCCUCAGGAUGAAACAAUUUGGAGAAGCGCAGAUCGGAAGAGCACACGU
B26: target 1 A14G (mixed)
RNA 1: CACCCGUGCAAAAAUGCAGGGGUCUAAAACUGAGCGGAUAACCUCUCUAUGG
RNA 2: GGGAAUGGAUCCACAUCUACGAAUUCGUACCAUAGAGGGGUUAUCCGCUCACCGAGAUCGGAAGAGCACACGU
B27: target 1 C6G,U8C (mixed)
RNA 1: CACCCGUGCAAAAAUGCAGGGGUCUAAAACUGAGCGGAUAACCUCUCUAUGG
RNA 2: GGGAAUGGAUCCACAUCUACGAAUUCGUACCAUAGAGAGGUUACCGGCUCACCGAGAUCGGAAGAGCACACGU

The target in the data set is T1, EsCas13d, nuclease-dead. The experiment in a line: crRNA (strand 1, pre-loaded); Mg2+; 40 mM Tris-HCl pH 7.5, 150 mM NaCl, 6 mM MgCl2, 1 mM DTT, 0.1% Tween-20, 0.2 mg/ml BSA; 25 C; 10 min per concentration, then washed. Particulars: tags: His6-TwinStrep-SUMO cleaved; N-terminal SNAP kept (SNAP-Surface 488); label: 3' end held by stalled T7 RNA polymerase.
For orientation: Kd means the free concentration of one partner at which half of the binding sites on the other are occupied at equilibrium, for simple one-to-one binding. Low values mean a tighter complex, high ones a looser complex. Molecule B1 displayed a Kd of 31 ± 11 nM.

Take B2: the Kd worked out at 9.3 ± 1.6 nM.

Take B3: binding was characterised by a dissociation constant (Kd) of 4.4 ± 1 nM.

Molecule B4 showed a dissociation constant Kd of 11.9 ± 1.7 nM.

B5 gave a Kd of 9.1 ± 1.1 nM.

For B6, the Kd turned out to be 4.9 ± 0.5 nM.

Molecule B7 came in with an equilibrium dissociation constant (Kd) of 4.8 ± 0.7 nM.

As to B8, the dissociation constant Kd stood at 17.8 ± 2.4 nM.

B9: the affinity, expressed as Kd, was 20.7 ± 1.9 nM.

Consider B10, for which the dissociation constant Kd stood at 14 ± 4 nM. This Kd and that of the molecule before are within 1.5-fold of each other.

B11 gave a Kd of 14.9 ± 2 nM.

On to B12, for which the affinity, expressed as Kd, was 10.5 ± 1.9 nM.

For B13, binding was put at a Kd of 9 ± 1.1 nM.

For the molecule B14, binding was put at a Kd of 9.4 ± 1 nM.

On to B15, for which the affinity, expressed as Kd, was 8 ± 0.8 nM.

Take B16: the Kd is 8.7 ± 1 nM.

In turn, B17 registered a Kd of 9.9 ± 1.2 nM.

Consider B18, for which the Kd was 14.1 ± 1.4 nM.

B19 registered a Kd of 4.8 ± 0.9 nM. Compared with the last molecule, the Kd is about 2.9-fold lower.

B20 returned a Kd of 22 ± 4 nM.

Consider B21, for which the Kd came to 38 ± 10 nM.

B22 yielded a dissociation constant (Kd) of 9 ± 0.8 nM.

In turn, B23 gave a Kd of 1.62 ± 0.31 nM.

As to B24, binding was put at a Kd of 9.3 ± 2.5 nM.

As for B25, the equilibrium dissociation constant (Kd) was determined as 2.25 ± 0.29 nM. Against the preceding molecule, the Kd is about 4.1-fold lower.

B26: binding was characterised by a dissociation constant (Kd) of 13.9 ± 0.7 nM.

As to B27, binding was characterised by a dissociation constant (Kd) of 11.9 ± 0.6 nM.
